Assay results published in publication PMC6691507 (Biochemistry, 2019).

Target: PAD2 D177A mutant, purified recombinant (human (from the printed UniProt entry …, UniProt Q9Y2J8 1-665, D177A))
Assay: co-IP

Sequence of PAD2 D177A mutant, purified recombinant (human (Q9Y2J8 whole entry D177A): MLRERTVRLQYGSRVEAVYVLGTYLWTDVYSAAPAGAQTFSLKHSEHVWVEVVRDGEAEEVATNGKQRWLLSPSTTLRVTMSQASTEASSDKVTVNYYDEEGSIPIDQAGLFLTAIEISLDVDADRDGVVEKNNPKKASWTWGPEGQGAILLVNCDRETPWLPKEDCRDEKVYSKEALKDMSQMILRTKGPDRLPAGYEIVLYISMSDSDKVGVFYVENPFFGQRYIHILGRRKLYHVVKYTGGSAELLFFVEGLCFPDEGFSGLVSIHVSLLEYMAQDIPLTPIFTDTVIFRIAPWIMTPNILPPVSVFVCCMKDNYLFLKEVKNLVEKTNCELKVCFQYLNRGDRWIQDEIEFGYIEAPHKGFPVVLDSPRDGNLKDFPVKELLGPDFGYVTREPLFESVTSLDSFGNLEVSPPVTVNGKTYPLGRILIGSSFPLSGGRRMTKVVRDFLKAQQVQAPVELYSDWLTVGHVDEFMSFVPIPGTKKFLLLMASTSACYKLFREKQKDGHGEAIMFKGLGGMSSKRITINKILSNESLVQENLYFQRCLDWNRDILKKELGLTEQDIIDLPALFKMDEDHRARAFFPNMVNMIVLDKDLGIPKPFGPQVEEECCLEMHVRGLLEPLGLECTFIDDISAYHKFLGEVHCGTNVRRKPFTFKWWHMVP

B1: Annexin A5 (ANXA5), purified recombinant (natural protein, UniProt P08758 1-320, looked up)
chain: MAQVLRGTVTDFPGFDERADAETLRKAMKGLGTDEESILTLLTSRSNAQRQEISAAFKTLFGRDLLDDLKSELTGKFEKLIVALMKPSRLYDAYELKHALKGAGTNEKVLTEIIASRTPEELRAIKQVYEEEYGSSLEDDVVGDTSGYYQRMLVVLLQANRDPDAGIDEAQVEQDAQALFQAGELKWGTDEEKFITIFGTRSVSHLRKVFDKYMTISGFQIEETIDRETSGNLEQLLLAVVKSIRSIPAYLAETLYYAMKGAGTDDHTLIRVMVSRSEIDLFNIRKEFRKNFATSLYSMIKGDTSGDYKKALLLLCGEDD
  binding result: binds
